Assay results reported in patent US20080261871A1, “Y2/Y4 Selective Receptor Agonists for Therapeutic Interventions” (priority 2004, published 2008).
No end group written: not given here.

T1: human Y2 receptor (human, UniProt P49146 1-381)
T1 sequence (looked up): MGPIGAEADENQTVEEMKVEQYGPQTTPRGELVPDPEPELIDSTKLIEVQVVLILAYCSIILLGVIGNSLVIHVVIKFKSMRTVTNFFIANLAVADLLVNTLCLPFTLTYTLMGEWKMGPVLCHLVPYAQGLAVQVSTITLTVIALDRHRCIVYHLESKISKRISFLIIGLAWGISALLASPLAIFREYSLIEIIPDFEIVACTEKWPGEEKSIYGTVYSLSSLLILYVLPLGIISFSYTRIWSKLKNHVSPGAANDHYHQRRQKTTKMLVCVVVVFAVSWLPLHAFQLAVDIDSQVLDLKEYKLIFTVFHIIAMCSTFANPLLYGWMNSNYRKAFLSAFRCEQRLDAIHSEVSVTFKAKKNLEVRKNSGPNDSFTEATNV

T2: human Y1 receptor (human, UniProt P25929 1-384)
T2 sequence (looked up): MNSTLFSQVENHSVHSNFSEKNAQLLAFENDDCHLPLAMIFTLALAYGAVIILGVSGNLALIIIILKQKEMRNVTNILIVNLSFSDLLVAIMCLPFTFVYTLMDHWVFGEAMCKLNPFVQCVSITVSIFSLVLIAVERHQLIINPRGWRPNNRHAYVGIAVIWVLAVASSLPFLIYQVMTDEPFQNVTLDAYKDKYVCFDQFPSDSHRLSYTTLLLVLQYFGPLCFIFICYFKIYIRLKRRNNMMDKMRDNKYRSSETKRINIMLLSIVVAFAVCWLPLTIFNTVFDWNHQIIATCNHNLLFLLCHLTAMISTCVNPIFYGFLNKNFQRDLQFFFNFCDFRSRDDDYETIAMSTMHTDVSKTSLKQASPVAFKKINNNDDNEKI


Experiments:
mice = experiment: Acute food intake in mice after subcutaneous injection; assay type: in vivo; conditions: mice fasted 16 hours, sc
Procedure: Food and water were available ad libitum except just before experiments (see below). The mice were acclimatized to subcutaneous injections during the week before experiments started. Mice were used once each in the experiments. Just before administration the peptides were diluted in physiological saline and administered in 100 μL volume for subcutaneous administration. Results are expressed as mean +/−SE. Analysis of variance followed by Bonferroni's test were used to assess differences among groups.
A standard diet was used (CLEA Japan, Inc., Tokyo, Japan) and food intake was measured by subtracting uneaten food from the initially premeasured food after administration and checking for food spillage.

in vivo [1] = experiment: in vivo; set-up: species or system cyno monkeys; conditions: cynomolgus monkey
From the text: […]. […] […]. Apparently, the Y4 receptor activation—conceivably in the area postreama-prevents the emetic effect of the Y2 activation form the same compound. This property of a combined Y2-Y4 selective agonist is of great benefit for the treatment of obesity and associated conditions.

in vivo [2] = conditions: dog, iv, 100 ug/kg
Procedure: (§1) At the highest dose a plasma levels of 100 nM was obtained in the dogs.

anesthetized dogs = experiment: in vivo; conditions: dog, iv
Procedure: as §1

human Y4 receptor = human Y4 receptor (human, UniProt P50391 1-375); experiment: cell-based or functional assay
human Y2 receptor = biological target: T1, human Y2 receptor; experiment: cell-based or functional assay
human Y1 receptor = biological target: T2, human Y1 receptor; experiment: cell-based or functional assay

Sequence of human Y4 receptor (P50391 whole entry): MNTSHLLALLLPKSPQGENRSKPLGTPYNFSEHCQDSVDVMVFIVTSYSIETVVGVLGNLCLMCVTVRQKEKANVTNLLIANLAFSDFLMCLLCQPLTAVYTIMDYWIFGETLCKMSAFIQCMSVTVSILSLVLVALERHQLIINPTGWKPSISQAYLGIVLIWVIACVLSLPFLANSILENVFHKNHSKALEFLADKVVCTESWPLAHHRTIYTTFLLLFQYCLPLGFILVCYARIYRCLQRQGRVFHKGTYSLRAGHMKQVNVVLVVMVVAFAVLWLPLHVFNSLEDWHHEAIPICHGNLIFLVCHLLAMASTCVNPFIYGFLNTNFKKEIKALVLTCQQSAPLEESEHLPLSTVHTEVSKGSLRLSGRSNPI

level at time molar (in vivo [1]) [nM]	level at time molar (in vivo [2]) [nM]	plasma level dose relationship (anesthetized dogs)	EC50, inositol phosphate turnover (human Y4 receptor) [nM]	EC50, inositol phosphate turnover (human Y2 receptor) [nM]	EC50, inositol phosphate turnover (human Y1 receptor) [nM]	Molecule	duration of inhibition of food intake (mice; 1 μg per animal)	inhibitory effect on food intake compared with PYY3-36 (mice; 1 and 10 μg per animal)
12 to 13	100	linear dose relationship				CC[C@H](C)[C@H](NC(=O)[C@H](Cc1ccc(O)cc1)NC(=O)[C@H](CCCNC(=N)N)NC(=O)[C@H](CCCNC(=N)N)NC(=O)[C@H](CC(C)C)NC(=O)[C@H](CC(=O)O)NC(=O)[C@H](C)NC(=O)[C@H](C)NC(=O)[C@H](Cc1ccc(O)cc1)NC(=O)[C@H](CCC(N)=O)NC(=O)[C@H](C)NC(=O)[C@H](CCSC)NC(=O)[C@H](CCC(N)=O)NC(=O)[C@H](CCC(=O)O)NC(=O)[C@@H]1CCCN1C(=O)[C@@H](NC(=O)[C@H](C)NC(=O)[C@H](CC(N)=O)NC(=O)[C@H](CC(=O)O)NC(=O)CNC(=O)[C@@H]1CCCN1C(=O)[C@H](Cc1ccc(O)cc1)NC(=O)[C@@H](NC(=O)[C@@H]1CCCN1C(=O)[C@H](CCC(=O)O)NC(=O)[C@H](CC(C)C)NC(=O)[C@@H]1CCCN1C(=O)[C@H](C)N)C(C)C)[C@@H](C)O)C(=O)N[C@@H](CC(N)=O)C(=O)N[C@@H](CCSC)C(=O)N[C@@H](CC(C)C)C(=O)N[C@H](C(=O)N[C@@H](CCCNC(=N)N)C(=O)N[C@@H](CCC(N)=O)C(=O)N[C@@H](CCCNC(=N)N)C(=O)N[C@@H](Cc1ccc(O)cc1)C(N)=O)[C@@H](C)O [[Gln34]PP]	more than 8 hours	more pronounced and long-lasting inhibitory effect
			4.5	8.6	102	APLEPVYPGDNATPEQMAQYAADLRRYINLLTRQRY-NH2 [[Leu30,Gln34]PP]		
			9.2	6.1	130	APLEPVYPGDNATPEQMAQYAADLRHYINMLTRQRY-NH2 [[His26,Gln34]PP]		
